Assay [1] addresses T1, human full-length CD33 (CD33^FL) expressed on cells (human, UniProt P20138 18-364).
T1 construct: Expressed on engineered REH (or RS4;11) sublines
Briefly: flow cytometry on REH cells expressing CD33^FL.

For assay [2], the target named is T2, ΔE2 version of human CD33 (CD33^ΔE2) expressed on cells (human, UniProt P20138 1-364).
T2 construct: Expressed on engineered REH sublines; also called CD33ΔE2 isoform
Briefly: flow cytometry on REH cells expressing CD33^ΔE2. An excerpt: FIG. 6 illustrates flow cytometry binding assay characterization of CD33^ΔE2 -specific CD33 antibodies. […] Antibodies specific for CD33^ΔE2 have not previously been described reliably in the literature. The herein-described CD33^ΔE2 specific antibodies will be useful, including for determining expression profiles of this isoform across healthy and diseased individuals. REH=human CD33^neg lymphoid cells.

The target of assay [3] is T3, extracellular domain of CD33^FL with a 6-histidine-avidin tag (hsCD33-His-Avi) (human, UniProt P20138 18-256).
T3 construct: The Biacore text says only 'the corresponding soluble ectodomains'; it includes the native signal peptide and the His-Avi tag, and no limits are stated on it; also called soluble CD33^FL ectodomain; MDT000235
Briefly: Biacore SPR, purified antibody and corresponding soluble ectodomain. From the text:
(§1) FIGS. 4A-4C illustrate the expression (FIGS. 4A, 4B) and characterization of two CD33^FL specific (8F5 and 5D12) and one CD33^ΔE2 specific (12B12) antibodies. Affinities for these antibodies (shown in FIG. 4C) were characterized by Biacore (Biacore, A&G Pharmaceutical, Inc., Columbia, MD) using purified antibodies and the corresponding soluble ectodomains.

The target of assay [4] is T4, extracellular domain of CD33^ΔE2 with a 6-histidine-avidin tag (hsCD33_ΔE2-His-Avi) (human).
T4 construct: The Biacore text says only 'the corresponding soluble ectodomains'; also called soluble CD33^ΔE2 ectodomain; MDT000239
T4 chain: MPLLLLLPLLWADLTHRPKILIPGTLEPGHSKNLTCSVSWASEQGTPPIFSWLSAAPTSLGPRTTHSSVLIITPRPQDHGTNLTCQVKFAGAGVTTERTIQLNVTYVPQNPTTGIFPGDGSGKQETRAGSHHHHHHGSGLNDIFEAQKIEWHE
The assay is described as above.
Source text: as §1

The target in assay [5] is T2, ΔE2 version of human CD33 (CD33^ΔE2) …. Briefly: flow cytometry on engineered REH cells. For orientation: In flow cytometry, cells or beads pass a laser one at a time.
For assay [6], the target named is T1, human full-length CD33 (CD33^FL) …. Briefly: flow cytometry on REH cells, legend of FIG. 7.
In assay [7] the target is T3, extracellular domain of CD33^FL with a …. Briefly: Biacore SPR, value quoted from FIG. 4C.
Source text: as §1
(In general: SPR reads the build-up and loss of mass on a sensor chip optically.)

Assay [8] concerns the target T2, ΔE2 version of human CD33 (CD33^ΔE2) …. Briefly: flow cytometry on REH subline expressing CD33^ΔE2.
Assay [9] concerns the target T1, human full-length CD33 (CD33^FL) …. Briefly: flow cytometry on REH subline expressing CD33^FL.

The record followed here is patent US20250034250A1 (published 2025).

Substitutions are numbered along the chain they refer to.

T1 sequence (P20138 18-364 limits assumed): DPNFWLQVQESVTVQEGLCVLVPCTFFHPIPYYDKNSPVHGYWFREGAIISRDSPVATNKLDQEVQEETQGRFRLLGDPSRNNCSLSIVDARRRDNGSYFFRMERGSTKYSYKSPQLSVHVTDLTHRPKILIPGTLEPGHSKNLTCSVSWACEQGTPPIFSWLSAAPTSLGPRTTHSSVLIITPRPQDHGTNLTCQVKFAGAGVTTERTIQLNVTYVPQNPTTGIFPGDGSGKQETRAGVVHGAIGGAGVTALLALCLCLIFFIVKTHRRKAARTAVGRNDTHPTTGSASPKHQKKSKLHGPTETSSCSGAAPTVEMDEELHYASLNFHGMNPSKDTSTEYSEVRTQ

B1: anti-CD33 antibody 7E7 (antibody, V domains shown)
VH: QVTLKESGPGILQPSQTLSLTCSFSGFSLNSYGMGIGWIRQPSGKGLEWLAHIWWDDNKYYKPDLKSRLTVSKDTSKNQVFLKIANVDTTDTATYFCARDGGYSLFAYWGQGTLVTVSV
VL: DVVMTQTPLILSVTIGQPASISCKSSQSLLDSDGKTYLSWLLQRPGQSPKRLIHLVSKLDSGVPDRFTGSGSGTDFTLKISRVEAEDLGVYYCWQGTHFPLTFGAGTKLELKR
notes: Mouse IgG1
With B1, the figures for the binding result in [1] and in [2] were “no binding” and “binds”, respectively.

B2: anti-CD33 antibody 8F5 (antibody, mouse IgG2a, kappa, V domains shown)
VH: EVKLVESGGGLVQPGGSLKLSCAASGFTFSDFYMYWVRQTPEKRLEWVAFISNAGVTTYYPDTVEGRFTISRDNAKNTLYLQMSRLMSEDTAMYYCTKSDYDGAWFPYWGQGTLVTVSA
VL: DIVMSQSPSSLPVSVGEKVTLSCKSSQSLLYSRNQYNFLAWYQQRPGQSPKLLIYWASTRESGVPDRFTGSGSGTDFTLTISSVKAEDLAVYYCQQYYSYPYTFGGGTKLEIKR
notes: Mouse IgG2a
In the case of B2, the Kd in assay [3] was found to be 8 nM.

B3: anti-CD33 antibody 12B12 (antibody, V domains shown)
VH: EVQLQQSGTVLARPGASVKMSCKASGYTFTTYWMHWIKQSPGQGLEWIGAIYPGNSDTSYNQKFKGKAKLTAVTSASTAYMELSSLTNEDSAVYYCEIYDGYHFIYWGQGTTLTVSS
VL: DIVMTQAAFSNPVTLGTSASISCRSSQSLLHSNGITYLYWYLQKPGQSPQLLIYQMSNLASGVPDRFSSSGSGTDFTLRISRVEAEDVGVYYCAQNLELPPTFGGGTKLEIKR
notes: Mouse IgG2b
B3 displayed a Kd in [4] of 8 nM.

B4: anti-CD33 antibody 11D5 (antibody, V domains shown)
VH: EVQFQQSETVLARPGTSVKLSCKASGYTFTSYWMHWLKQRPGQGLEWIGAIYCGNSDTSYNQKFKGKAKLTAVTSATTAYMELSSLTNEDSAVYYCKIYDGYHFDYWGQGTTLTVSS
VL: B3 VL with S26N, Q27K
notes: Mouse IgG1
With B4, the binding result in assay [5] is listed as “binds”.

B5: anti-CD33 antibody 1H7 (antibody, V domains shown)
VH: QVQLQQSGAELVKPGASVKISCKASGYAFSNYWMNWVKQRPGKGLEWIGQINPGDGDTNYNGKFKGKATLTADKSSSTAYMQLSSLTSEDSAVYFCAREDRDYFDYWGQGTTLTVSS
VL: DIQMTQTTSSLSASLGDRVTISCRASQDINYYLNWYQQKPDGTVKLLIYYSSRLHSGVPSRFSGSGSGTDFSLTISNLEQEDIATYFCQQDDALPYTFGGGTKLEIKR
notes: Raised in mice; The entries include a secretion leader; also called CD33PAN antibody
As for B5, the binding result in assay [1] and in [2] was “binds” in each case.

B6: anti-CD33 antibody 11D11 (antibody, V domains shown)
VH: EVNLVESGGGLVQSGRSLRLSCATSGFTFSDFYMEWVRQAPGKGLEWIAASRNKANDYTTEYKASVKGRFIVSRDTSQSILYLQMNALRAEDTAIYYCTRDTGPMDYWGQGTSVTVSS
VL: B5 VL with N30S, Y31N, S51T, F71Y, D91G, D92S, A93T, Y96P
notes: Mouse IgG1
For B6, the binding result in assay [2] is reported as “binds”.

B7: anti-CD33 antibody 5E10.7 (antibody, V domains shown)
VH: QVQLQQPGAEFVKPGASVKLSCKASGYTFTSYWMQWVKQRPGQGLEWIGEIDSSDSYTNYNQKFKGMATLTVDRSSSTAYMQLSSLTSEDSAVYYCARSRPYDWFPYWGQGTLVTVST
VL: DIKMTQSPSSIYASLGERVTITCKASQDIKSYLSWYQQKPRKSPKTLIYYATTLADGVPSRFSGSGSGQDFSLTISSLESDDTATYYCLHHSESPWTFGGGTKLEIKR
notes: Mouse IgG1
On to B7, for which the binding result in assay [6] and in [2] was “binds” throughout.

B8: anti-CD33 antibody 5D12 (antibody, V domains shown)
VH: QVQLQQSGAEVVKPGASVKISCRASGYAFSNYWMNWVKQRPGKGLEWIGQIYPGNFNTDYNGQFKGKATLTVDKSSNTAYMQLSSLTSEDSAVYFCARFFDFGAYFTLDYWGQGTSVTVSS
VL: B7 VL with T22N, R41W, F71Y, S92G, G100E
notes: Mouse IgG2a
B8: the Kd in assay [3] was found to be 0.112 nM; in assay [7], 0.122 nM.

B9: anti-CD33 antibody 2D5 (antibody, V domains shown)
VH: QVQLQQSGAELVRPGASVTLSCKASGYTFTDYDMHWVKQTPVHGLEWIGAIDPETGGTAYNQNFKGKAILTVDKSSRIAYMELRSLTSEDSAVFYCTSDYDYFGVWGTGTTVTVSS
VL: DIVMTQSQKFMSTSVGDRVSVTCKASQNVGTNVVWYHKKPGQSPKGLIYSASDRYSGVPDRFTGSGSGTDFTLTINNVQSEDLAEYFCQQYNIYPYTFGGGTKLEIKR
notes: the antibody was raised in mice
Turning to B9, the binding result in assay [8] and in assay [9] was “binds” in each case.

As a reminder, the Kd is a measure of binding affinity in units of concentration. A higher Kd goes with lower affinity.
